Target: T1, Noggin (UniProt Q13253 28-232, limits assumed)
T1 sequence (looked up): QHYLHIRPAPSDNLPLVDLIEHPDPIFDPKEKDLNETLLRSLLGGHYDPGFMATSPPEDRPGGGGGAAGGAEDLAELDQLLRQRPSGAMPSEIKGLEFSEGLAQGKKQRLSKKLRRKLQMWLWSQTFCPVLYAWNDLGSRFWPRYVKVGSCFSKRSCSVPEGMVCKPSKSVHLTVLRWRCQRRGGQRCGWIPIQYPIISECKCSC
Test: size-exclusion chromatography of the AB204 and Noggin mixture

- binding result: no binding
B1: AB204 (ligand)
chain: MQAKHKQRKRLKSSCKRHPLYVDFSDVGWNDWIIAPSGYHANYCDGECPFPLADHLNSTNHAIVQTLVNSVNSKIPKACCVPTKLRPMSMLYYDDGQNIIKKDIQNMIVEECGCS
notes: also called Noggin-insensitive chimera AB204

From patent publication US20210395322A1 (OSR, published 2021)
